We go through four molecules from patent US9371374 (AbbVie / Abbott, dated 2016).

Experiment [1] concerns the target T1, HCV Core1-169 (HCV-1, UniProt P26664 1-169).
T1 construct: also called Solid Phase HCV Core
T1 sequence: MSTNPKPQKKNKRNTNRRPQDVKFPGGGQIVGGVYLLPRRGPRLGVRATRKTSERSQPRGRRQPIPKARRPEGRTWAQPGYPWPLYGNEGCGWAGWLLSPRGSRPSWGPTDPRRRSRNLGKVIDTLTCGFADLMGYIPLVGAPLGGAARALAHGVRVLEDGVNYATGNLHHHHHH
The experiment can be described thus: EIA, core captured by anti-domain 1 mAb.

The target in experiment [2] is T1, HCV Core1-169. Put plainly: EIA, coated core1-169.
Experiment [3] has as its target HCV Core 134-171-TT peptide (ALRZ-9 peptide) (HCV-1). The experiment can be described thus: SPR, captured mAb.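 Also: Anti-HCV Core mAbs from hybridoma supernatants held on a rabbit anti-mouse IgG CM5 surface, peptide flowed over 3 min then 4 min dissociation, duplicate concentrations.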 On the technique in general: In SPR one partner is held on a chip, and binding of the other changes the refractive index at the surface.
Experiment [4] addresses T1, HCV Core1-169. Put plainly: sandwich EIA, capture C11-9.
Experiment [5] addresses T1, HCV Core1-169. The experiment can be described thus: sandwich EIA, capture 208B-612-226.
Experiment [6] has as its target T1, HCV Core1-169. The experiment can be described thus: sandwich EIA, capture 208A-692.
Experiment [7] addresses T1, HCV Core1-169. The experiment can be described thus: sandwich EIA, capture 208B-395-334.
Experiment [8] concerns the target T1, HCV Core1-169. Put plainly: sandwich EIA, capture C11-7.
The target of experiment [9] is T1, HCV Core1-169. Put plainly: sandwich EIA, capture 208B-741.
Experiment [10] has as its target T1, HCV Core1-169. The experiment can be described thus: sandwich EIA, NC capture mAb.
Experiment [11] has as its target T1, HCV Core1-169. The experiment can be described thus: sandwich EIA, capture 208A-293.
Experiment [12] deals with T1, HCV Core1-169. Put plainly: sandwich EIA, capture 208B-1096.
Experiment [13] has as its target T1, HCV Core1-169. Put plainly: sandwich EIA, capture 208A-207-271.
For experiment [14], the target named is T1, HCV Core1-169. The experiment can be described thus: sandwich EIA, capture 208A-110.
The target of experiment [15] is T1, HCV Core1-169. Put plainly: sandwich EIA, capture 208A-557.
Experiment [16] has as its target HCV Core 134-171-TT peptide (ALRZ-9 peptide) (HCV-1). The experiment can be described thus: SPR, captured mAb.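 Also: Anti-HCV Core mAbs from hybridoma supernatants held on a rabbit anti-mouse IgG CM5 surface, peptide flowed over 3 min then 4 min dissociation, duplicate concentrations.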 The source holds these as a separate data set.
Experiment [17] concerns the target T1, HCV Core1-169. The experiment can be described thus: SPR sandwich, C11-3 capture.
Experiment [18] deals with T1, HCV Core1-169. The experiment can be described thus: SPR sandwich, C11-9 capture.
In experiment [19] the target is T1, HCV Core1-169. Put plainly: SPR sandwich, C11-14 capture.
The target in experiment [20] is T1, HCV Core1-169. Put plainly: SPR sandwich, C11-7 capture.

For orientation: Kd means the free concentration of one partner at which half of the binding sites on the other are occupied at equilibrium, for simple one-to-one binding. As a reminder, the koff is the rate constant with which the complex falls apart. The low end stands for slow dissociation, the high end for fast dissociation. What is called kon is the second-order rate constant of association.

Substitutions are numbered along the chain they refer to. A value given as a limit tells only on which side of the number the result lay.

B1: HCV 208A-422 (antibody, V domains shown)
VH: DVQLQESGPGLVNPSQSLSLTCSVTGYSITSGYYWIWIQQSPGNKLEWMGYIKYDGGNNYSPSLKNRISIARDTSKNQCFLKLNSVTIEDTATYYCTRGSDSFDYWGQGTTLTVSS
VL: DIVLTQSPASLAVSLGQRAIISCKASQSVSFAGTNLMHWYQQKPGQQPKLLIYRASNLETGVPTRFSGSGSRTDFTLNIHPVEEDDAATYYCQQSREYYTFGGGTKLEIKR
For B1, the “OD (A492)” value in [1] was determined as 0.18 OD; in experiment [2] it was 1.68 OD.

B2: HCV 208A-207 (antibody, V domains shown)
VH: QGQLQQPGAEFVKPGASLKLSCRASGYTFTSYWIHWVKQRPGQGLEWIGEIDPSDSYINQNQKFRGKATLTVDKSSSTAYMELSGLTSEDSAVYYCARHYYGVLDSWGQGTTLTVSS
VL: DIVLTQSPATLSVTPGDRVSLSCRASQRIYNYLHWYQQKSHESPRLLTKYASQSISGIPSRFSGSGSGTDFILTINSVETEDFGMYFCQQSNSWPLTFGAGTKLELRR
Molecule B2 had a Kd in [3] of less than 0.032 nM. In [3], this molecule returned a koff of less than 1e-05 s⁻¹. The molecule further returned a kon in [3] of 310000 M⁻¹ s⁻¹. The OD492 in [4] worked out at 2.2 OD; in experiment [5] it was 0.33 OD; in experiment [6], 0.42 OD; in experiment [7] it was 0.37 OD; in [8] it was 2.47 OD; in experiment [9], 0.3 OD. Moreover, the OD492 in [10] was found to be 0.37 OD; in [11], 0.42 OD; in experiment [12], 0.33 OD; in experiment [13] it was 0.36 OD; in experiment [14] it was 0.38 OD; in experiment [15], 0.82 OD.

B3: HCV 208B-395 (antibody, V domains shown)
VH: QVQLQQSGAGLAKPGASVKMSCKASGYTFTANKMHWTKQRPGQGLEWIGYIDPSSGYTQYNHKIQDKATLTADTSSSTAYMQLSSLTFEDSAVYYCTNFAYWGQGTLVTVSA
VL: B2 VL with T48I
B3 displayed a Kd in experiment [3] of 0.36 nM. This molecule also returned a koff in [3] of 0.00047 s⁻¹. For the same molecule, the kon in experiment [3] was 1.3e+06 M⁻¹ s⁻¹. Moreover, the OD492 in experiment [4] was determined as 0.32 OD; in [5] it was 0.26 OD; in [6], 0.15 OD; in experiment [7], 0.23 OD; in [8] it was 0.89 OD; in experiment [9], 0.21 OD. The OD492 was found to be 0.2 OD in experiment [10]; 0.26 OD in experiment [11]; 0.23 OD in [12]; 0.2 OD in [13]; 0.21 OD in experiment [14]; 0.21 OD in experiment [15].

B4: HCV 208B-862 (antibody, V domains shown)
VH: DVQLQESGPGLVKPSQSLSLTCTVTGYSITSDYAWNWIRQFPGNKLEWMGYISYSGTTVYSPSLKSRISITRDTSKNQFFLQLNSVTIEDSATYYCGGNYWGQGTLVTVSA
VL: DVVLTQTPLSLPLSLGDQASISCRSSQTLLHSDGDTYLHWYLQKPGQSPKLLIYKLSNRFSGVPDRFSGSGSGTDFTLKISRVEAEDLGVYFCSQSTHVPYTFGGGTKLEIKR
In experiment [16], B4 yielded a Kd of 0.07 nM. The same molecule had a koff in experiment [16] of 0.0001 s⁻¹. For the same molecule, the kon in experiment [16] was 1.4e+06 M⁻¹ s⁻¹. Besides, the “OD (A492)” value in experiment [1] came out at 1.07 OD; in experiment [2] it was 0.49 OD. Further, the expected % binding was 11.2% in experiment [17], 8.9% in experiment [18], 12.6% in [19] and 15.2% in experiment [20].
